Assay results published in patent US20260109774A1 (JUNO THERAPEUTICS, published 2026).

Columns and labels:
[1] = biological target: T1, recombinant human BCMA-hFc (human, UniProt Q02223 1-54, biotinylated in the kinetic exclusion assay of paragraph 546); assay: KinExA kinetic exclusion assay, CAR-expressing Jurkat cells titrated into 20 nM or 1 nM biotinylated rhBCMA hFc
T1 construct: also called rhBCMA hFc; recombinant human BCMA fusion protein
T1 sequence: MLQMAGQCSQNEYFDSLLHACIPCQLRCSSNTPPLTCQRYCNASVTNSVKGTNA

[2] = biological target: T2, BCMA-Fc (soluble human BCMA fused at its C-terminus to an Fc region of IgG) (human, UniProt Q02223 1-54); assay: flow cytometry, T cells transduced with O/SSE construct, CD4 gate, recombinant BCMA-Fc (rBCMA) staining against surrogate marker
T2 construct: also called hBCMA-Fc; hBMCA-Fc
T2 sequence: T1 sequence
Procedure: (§1) Lentiviral constructs containing anti-BCMA CAR-encoding polynucleotides with starting and optimized sequences, respectively, as described in Example 3, were transduced into T cells and transduced cells were analyzed for transduction (based on expression of a surrogate marker) and for CAR expression based on binding to recombinant BCMA-Fc fusion protein by flow cytometry.

[3] = biological target: T2, BCMA-Fc (soluble human BCMA fused at …); assay: flow cytometry, T cells transduced with O/SSE construct, CD8 gate, recombinant BCMA-Fc (rBCMA) staining against surrogate marker
Procedure: as §1

[4] = biological target: T2, BCMA-Fc (soluble human BCMA fused at …); assay: flow cytometry, T cells transduced with Non-SSE construct, CD4 gate, recombinant BCMA-Fc (rBCMA) staining against surrogate marker
Procedure: as §1

[5] = biological target: T2, BCMA-Fc (soluble human BCMA fused at …); assay: flow cytometry, T cells transduced with Non-SSE construct, CD8 gate, recombinant BCMA-Fc (rBCMA) staining against surrogate marker
Procedure: as §1

[6] = biological target: T1, recombinant human BCMA-hFc; assay: kinetics exclusion assay, CAR expressed on a Jurkat T cell line, rhBCMA hFc in solution; CAR on Jurkat cells, kinetics exclusion assay (not the scFv-Fc by Biacore)
Procedure: A CAR with a BCMA-55-derived scFv binding domain, a modified IgG-derived CH2-CH3-hinge spacer, a CD28 transmembrane domain, and 41BB and CD3zeta endodomain, was expressed in a Jurkat T cell line. Kinetics of binding by the CAR to recombinant human BCMA-hFc (rhBCMA hFc) was assessed using a kinetics exclusion assay. Affinity of binding of an Fc fusion protein containing the scFv portion of the CAR (scFv-Fc) to recombinant human BCMA fusion protein was also assessed using a Biacore-based assay.

[7] = biological target: T3, human BCMA peptide 30SNTPPLTCQR39 (human); assay: CLIPS peptide array, ELISA
T3 construct: Could be recognized in a linear form
T3 peptide: SNTPPLTCQR
Procedure: (§2) Mapping was carried out using anti-BCMA scFv clones, such as those fused with mouse Fc (scFv-mFc).
(§3) Linear and conformational peptide libraries of amino acid residues 1-54 of human BCMA (set forth as amino acid residues 1-54 of SEQ ID NO:367) were generated based on a combinatorial matrix design. Linear peptides and structural mimetics including single loop, a-helix, 3-turn, combinatorial and linear disulfide bridge mimics, and discontinuous epitope mimics were used, along with positive and negative control peptides, on an amino-functionalized solid support.
(§4) Affinities for binding to the peptides in the epitope library were determined using ELISA. The peptide arrays were incubated with a solution containing the scFv overnight at 4° C. Affinity information was used in iterative screens to define the sequence and conformation of epitopes. Heat maps of affinity information for two or more loops were generated.

[8] = biological target: T4, human B-cell maturation antigen (BCMA) on cells (human, UniProt Q02223 1-184); assay: flow cytometry on BCMA-expressing HEK293 cells vs control cells, crude lysate or bacterial supernatant; clone listed in Table E2
T4 construct: Recombinant on HEK293 or K562 cells, or endogenous on cell lines (H929, RPMI 8226, OPM2, MM1S, Daudi); also called hBCMA; huBCMA
T4 chain: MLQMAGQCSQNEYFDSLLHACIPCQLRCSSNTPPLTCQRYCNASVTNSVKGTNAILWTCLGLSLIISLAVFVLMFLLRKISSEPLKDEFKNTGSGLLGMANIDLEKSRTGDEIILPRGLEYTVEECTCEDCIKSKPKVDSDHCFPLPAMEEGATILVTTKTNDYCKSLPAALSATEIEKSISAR
Procedure: Specific binding of resulting scFv clones to BCMA-expressing HEK293 cells, as compared to control cells not expressing BCMA, was assessed by flow cytometry either with in vitro translated crude cell lysate or with bacterially-produced supernatant.

[9] = biological target: T5, human BCMA amino acid residues 1-54 (linear and conformational peptide libraries) (human, UniProt Q02223 1-54); assay: CLIPS peptide array, ELISA
T5 construct: Presented as CLIPS peptide arrays (linear peptides and structural mimetics) on a solid support
T5 sequence: T1 sequence
Procedure: as §2, §3, §4

[10] = biological target: T1, recombinant human BCMA-hFc; assay: Biacore-based assay (SPR)
[11] = biological target: T4, human B-cell maturation antigen (BCMA) …; assay: membrane proteome array on transfected HEK293 cells (Retrogenix)

B1: BCMA-55-LS CAR (other)
chain: QSALTQPASVSASPGQSIAISCTGTSSDVGWYQQHPGKAPKLMIYEDSKRPSGVSNRFSGSKSGNTASLTISGLQAEDEADYYCSSNTRSSTLVFGGGTKLTVLGSRGGGGSGGGGSGGGGSLEMAEVQLVQSGAEMKKPGASLKLSCKASGYTFIDYYVYWMRQAPGQGLESMGWINPNSGGTNYAQKFQGRVTMTRDTSISTAYMELSRLRSDDTAMYYCARSQRDGYMDYWGQGTLVTVSSESKYGPPCPPCPAPPVAGPSVFLFPPKPKDTLMISRTPEVTCVVVDVSQEDPEVQFNWYVDGVEVHNAKTKPREEQFQSTYRVVSVLTVLHQDWLNGKEYKCKVSNKGLPSSIEKTISKAKGQPREPQVYTLPPSQEEMTKNQVSLTCLVKGFYPSDIAVEWESNGQPENNYKTTPPVLDSDGSFFLYSRLTVDKSRWQEGNVFSCSVMHEALHNHYTQKSLSLSLGKMFWVLVVVGGVLACYSLLVTVAFIIFWVKRGRKKLLYIFKQPFMRPVQTTQEEDGCSCRFPEEEEGGCELRVKFSRSADAPAYQQGQNQLYNELNLGRREEYDVLDKRRGRDPEMGGKPRRKNPQEGLYNELQKDKMAEAYSEIGMKGERRRGKGHDGLYQGLSTATKDTYDALHMQALPPR
notes: Chimeric antigen receptor on T cells or Jurkat cells; also called BCMA-55-LS-O/SSE CAR; BCMA-55-LS CAR O/SSE
Q: For B1, which Kd [1] is on record?
A: Its Kd is roughly 1.46 nM.

Q: And the “% of cells in Q1 (rBCMA+ marker-)” value [2]?
A: The value was 1.9%.

Q: What about the “% of cells in Q3 (rBCMA- marker+)” value [2] of the same binder?
A: Its value is 4.89%.

Q: What about the “% of cells in Q4 (rBCMA- marker-)” value [2] of the same binder?
A: Its value is 43%.

Q: And the “% of cells in Q1 (rBCMA+ marker-)” value [3]?
A: Its value is 2.47%.

Q: And the “% of cells in Q3 (rBCMA- marker+)” value [3]?
A: The value was 6.39%.

Q: And the “% of cells in Q4 (rBCMA- marker-)” value [3]?
A: The value was 47.8%.

Q: What about the “% of cells in Q1 (rBCMA+ marker-)” value [4] of the same binder?
A: The value was 8.66%.

Q: And the “% of cells in Q3 (rBCMA- marker+)” value [4]?
A: The value was 6.35%.

Q: And the “% of cells in Q4 (rBCMA- marker-)” value [4]?
A: Its value is 40.9%.

Q: And the “% of cells in Q1 (rBCMA+ marker-)” value [5]?
A: The value was 7.95%.

Q: And the “% of cells in Q3 (rBCMA- marker+)” value [5]?
A: The value was 6.75%.

Q: And the “% of cells in Q4 (rBCMA- marker-)” value [5]?
A: Its value is 48.8%.

Q: And the Kd [6]?
A: Its Kd is roughly 1 nM.

B2: BCMA-1 scFv (scFv)
scFv: QVQLVQSGGGLVQPGRSLRLSCTASGFTFGDYAMSWFRQAPGKGLEWVGFIRSKAYGGTTEYAASVKGRFTISRDDSKSIAYLQMNSLKTEDTAVYYCAAWSAPTDYWGQGTLVTVSSGGGGSGGGGSGGGGSDIVMTQSPDSLSVSPGERATISCKSSQSVLSTSNNKNYLAWYQQKPGQPPRLLLYWASTREAGVPDRFSGSGSGTDFTLTISSLQAEDVAVYYCQQYFSSPYTFGHGTKLEIK
Q: Does B2 bind [7]?
A: Result: binds

Q: Does B2 bind [8]?
A: Result: binds

B3: BCMA-5 scFv (scFv)
scFv: QVQLVQSGGGLVQPGRSLRLSCTASGFTFGDYAMSWFRQAPGKGLEWVGFIRSKAYGGTTEYAASVKGRFTISRDDSKSIAYLQMNSLKTEDTAVYYCAAWSAPTDYWGQGTLVTVSSGGGGSGGGGSGGGGSDIVMTQSPDSLAVSLGERATINCKSSQSVLYSSNNKNYLAWYQQKPGQPPKLLIYWASTRESGVPDRFSGSGSGTDFTLTISSLQAEDVAVYYCQQYYSTPWTFGQGTKVDIK
Q: Does B3 bind [7]?
A: Result: binds

Q: Does B3 bind [8]?
A: Result: binds

B4: BCMA-26 scFv (scFv)
scFv: EVQLVESGGGLVKPGGSLRLSCAASGFTFSDYYMSWIRQAPGKGLEWVSYISSSGSTIYYADSVKGRFTISRDNAKNSLYLQMNSLRAEDTAVYYCAKVDGPPSFDIWGQGTMVTVSSGGGGSGGGGSGGGGSSYVLTQPPSVSVAPGQTARITCGANNIGSKSVHWYQQKPGQAPMLVVYDDDDRPSGIPERFSGSNSGNTATLTISGVEAGDEADYFCHLWDRSRDHYVFGTGTKLTVL
Q: Does B4 bind [9]?
A: Result: binds

Q: Does B4 bind [8]?
A: Result: binds

B5: BCMA-9 scFv (scFv)
scFv: EVQLVQSGGGLVKPGGSLRLSCAASGFTFSDYYMSWIRQAPGKGLEWVSYISSSGSTIYYADSVKGRFTISRDNAKNSLYLQMNSLRAEDTAVYYCARVDGDYVDDYWGQGTLVTVSSGGGGSGGGGSGGGGSSYELTQPPSVSVAPGQTARVTCGANNIGSKSVHWYQQKPGQAPMLVVYDDDDRPSGIPERFSGSNSGNTATLTISGVEAGDEADYFCHVWDRSRDHYVFGTGTKLTVL
Q: Which results are given for B5?
A: binding result [9]: binds; binding result [8]: binds

B6: BCMA-25 scFv (scFv)
scFv: EVQLVQSGGGLVQPGRSLRLSCTASGFTFGDYAMSWFRQAPGKGLEWVGFIRSKAYGGTTEYAASVKGRFTISRDDSKSIAYLQMNSLKTEDTAVYYCAAWSAPTDYWGQGTLVTVSSGGGGSGGGGSGGGGSDIQMTQSPAFLSASVGDRVTVTCRASQGISNYLAWYQQKPGNAPRLLIYSASTLQSGVPSRFRGTGYGTEFSLTIDSLQPEDFATYYCQQSYTSRQTFGPGTRLDIK
Q: Does B6 bind [7]?
A: Result: binds

Q: Does B6 bind [8]?
A: Result: binds

B7: BCMA-55 scFv-Fc fusion protein (Fc fusion, not shown: a dimerising Fc or GST)
chain: QSALTQPASVSASPGQSIAISCTGTSSDVGWYQQHPGKAPKLMIYEDSKRPSGVSNRFSGSKSGNTASLTISGLQAEDEADYYCSSNTRSSTLVFGGGTKLTVLGSRGGGGSGGGGSGGGGSLEMAEVQLVQSGAEMKKPGASLKLSCKASGYTFIDYYVYWMRQAPGQGLESMGWINPNSGGTNYAQKFQGRVTMTRDTSISTAYMELSRLRSDDTAMYYCARSQRDGYMDYWGQGTLVTVSS
notes: also called BCMA-55-Fc
Q: B7 was tested. Which Kd [10] did it give?
A: The Kd was roughly 10 nM.

Q: Does B7 bind [11]?
A: Result: binds

B8: BCMA-23 scFv (scFv)
scFv: EVQLVESGGGLVKPGGSLRLSCAASGFTFSDYYMSWIRQAPGKGLEWVSYISSSGSTIYYADSVKGRFTISRDNAKNSLYLQMNSLRAEDTAVYYCAKVDGDYTEDYWGQGTLVTVSSGGGGSGGGGSGGGGSQSALTQPASVSGSPGQSITISCTGSSSDVGKYNLVSWYQQPPGKAPKLIIYDVNKRPSGVSNRFSGSKSGNTATLTISGLQGDDEADYYCSSYGGSRSYVFGTGTKVTVL
Q: Does B8 bind [7]?
A: Result: binds

B9: BCMA-52-scFv-mFc (Fc fusion, not shown: a dimerising Fc or GST)
chain: SYELTQPPSASGTPGQRVTMSCSGTSSNIGSHSVNWYQQLPGTAPKLLIYTNNQRPSGVPDRFSGSKSGTSASLAISGLQSEDEADYYCAAWDGSLNGLVFGGGTKLTVLGSRGGGGSGGGGSGGGGSLEMAEVQLVQSGAEVKKPGESLKISCKGSGYSFTSYWIGWVRQMPGKGLEWMGIIYPGDSDTRYSPSFQGHVTISADKSISTAYLQWSSLKASDTAMYYCARYSGSFDNWGQGTLVTVSS
notes: also called BCMA-52 scFv fused with mouse Fc
Q: Does B9 bind [9]?
A: Result: binds
